The target of the assay is Human uPA (Chemicon) (human) (UniProt P00749). The assay can be described thus: cell-based or functional assay.

Sequence of Glutathione S-transferase (GST)-tagged maspin (GST-maspin), bacterial recombinant (P08515 whole entry): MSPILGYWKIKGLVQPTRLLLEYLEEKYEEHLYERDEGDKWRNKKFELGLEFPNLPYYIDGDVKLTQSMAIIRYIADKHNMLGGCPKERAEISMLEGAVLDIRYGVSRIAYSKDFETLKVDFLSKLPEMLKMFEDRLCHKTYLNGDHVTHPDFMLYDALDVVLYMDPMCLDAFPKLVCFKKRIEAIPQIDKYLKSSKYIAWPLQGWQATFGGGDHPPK

Consider “Glutathione S-transferase (GST)-tagged maspin (GST-maspin), bacterial recombinant (from UniProt P08515 1-218)”, for which the maspin-mediated adhesion of uPA-stripped MCF0A cells resupplied with exogenous uPA (800 nM) (% of GST control) is 154.

The record behind these values is US20120302506A1.
